Source: patent publication US20030032096A1 (US Dept. of Health and Human Services, published 2003)
Values joined by “and” are separate entries in the source; they are usually repeats but may differ in a detail not shown here. Identical values can stand only once. Like-named read-outs stand apart in the source and are kept apart here. No end group written: not given here. *: point of attachment. 125I = [125I]*

Legend:
[1] = biological target: human parathyroid hormone type 2 receptor (PTH2 receptor) (human) (UniProt P49190); test: cell-based or functional assay
human parathyroid hormone type 2 receptor (PTH2 receptor) (human), sequence (P49190 25-550): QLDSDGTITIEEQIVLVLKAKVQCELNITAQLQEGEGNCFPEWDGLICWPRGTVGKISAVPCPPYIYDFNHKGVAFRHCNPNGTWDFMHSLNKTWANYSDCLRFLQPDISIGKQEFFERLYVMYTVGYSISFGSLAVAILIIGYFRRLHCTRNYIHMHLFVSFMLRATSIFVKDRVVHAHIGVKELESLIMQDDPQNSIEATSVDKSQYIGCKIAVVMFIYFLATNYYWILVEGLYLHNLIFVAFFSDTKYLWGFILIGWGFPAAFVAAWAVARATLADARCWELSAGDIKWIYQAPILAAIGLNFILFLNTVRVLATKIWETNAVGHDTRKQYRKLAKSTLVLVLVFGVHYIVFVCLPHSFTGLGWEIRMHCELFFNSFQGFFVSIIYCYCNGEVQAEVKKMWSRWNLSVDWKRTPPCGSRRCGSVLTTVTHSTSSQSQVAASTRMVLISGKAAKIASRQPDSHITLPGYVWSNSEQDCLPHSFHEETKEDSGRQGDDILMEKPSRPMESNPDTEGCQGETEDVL

rat PTH2 receptor = rat PTH2 receptor (rat, UniProt P70555 25-546); test: cell-based or functional assay
rat PTH2 receptor, sequence (P70555 25-546): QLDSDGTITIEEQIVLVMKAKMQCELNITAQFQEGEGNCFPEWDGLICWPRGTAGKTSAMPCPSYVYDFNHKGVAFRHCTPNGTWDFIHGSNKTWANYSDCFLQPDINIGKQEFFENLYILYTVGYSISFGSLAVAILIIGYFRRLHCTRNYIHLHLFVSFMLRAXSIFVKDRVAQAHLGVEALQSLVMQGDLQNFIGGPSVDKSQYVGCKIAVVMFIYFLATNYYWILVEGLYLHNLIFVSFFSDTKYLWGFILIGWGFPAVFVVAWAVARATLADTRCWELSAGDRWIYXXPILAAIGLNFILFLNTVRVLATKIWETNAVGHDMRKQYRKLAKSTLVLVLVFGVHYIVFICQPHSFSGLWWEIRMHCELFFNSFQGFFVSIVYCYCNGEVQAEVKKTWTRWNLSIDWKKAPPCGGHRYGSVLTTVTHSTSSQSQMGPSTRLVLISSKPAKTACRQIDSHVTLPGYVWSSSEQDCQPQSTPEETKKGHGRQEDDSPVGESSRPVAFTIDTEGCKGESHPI

[2] = biological target: human parathyroid hormone type 2 receptor (PTH2 receptor) (human) (UniProt P49190); test: membrane radioligand binding, absence of GTPγS
[3] = biological target: human parathyroid hormone type 2 receptor (PTH2 receptor) (human) (UniProt P49190); test: membrane radioligand binding, presence of GTPγS
[4] = biological target: human parathyroid hormone type 1 receptor (PTH1 receptor) (human) (UniProt Q03431); test: radioligand binding, HEK293 membranes, 10 µM GTPγS, 43 000 cpm added
[5] = biological target: human parathyroid hormone type 2 receptor (PTH2 receptor) (human) (UniProt P49190); test: displacement of [125I]TIP39, HEK293 membranes, centrifugation assay
[6] = biological target: human parathyroid hormone type 2 receptor (PTH2 receptor) (human) (UniProt P49190); test: displacement of [125I]TIP39, HEK293 membranes, with against without GTPγS
[7] = biological target: human parathyroid hormone type 1 receptor (PTH1 receptor) (human) (UniProt Q03431); test: radioligand binding to the PTH1 receptor
[8] = biological target: human parathyroid hormone type 1 receptor (PTH1 receptor) (human) (UniProt Q03431); test: direct dissociation of the radioligand from the PTH1 receptor
[9] = biological target: human parathyroid hormone type 1 receptor (PTH1 receptor) (human) (UniProt Q03431); test: displacement of [125I][Nle8,21,Tyr34]rPTH(1-34), HEK293 membranes, 10 µM GTPγS
[10] = biological target: C-terminal hemaglutinin-tagged human PTH1 receptor (Example 11) (human) (UniProt Q03431); test: cell-based or functional assay
[11] = biological target: human parathyroid hormone type 1 receptor (PTH1 receptor) (human) (UniProt Q03431); test: Motulsky and Mahan kinetic competition with [125I]TIP(7-39), HEK293 membranes
[12] = biological target: T1, human parathyroid hormone type 2 receptor (PTH2 receptor) (human, UniProt P49190 25-550); test: displacement of [125I]TIP39, 293PTH2 membranes, filtration assay
T1 construct: whole, on cells; also called human PTH2 receptor; hPTH2 receptor
T1 sequence (P49190 25-550): as the sequence (P49190 25-550) above

human glucagon receptor = biological target: T2, human glucagon receptor (human, UniProt P47871 26-477); test: displacement of [125I]glucagon, intact COS-7 cells
T2 construct: whole, on cells
T2 sequence (P47871 26-477): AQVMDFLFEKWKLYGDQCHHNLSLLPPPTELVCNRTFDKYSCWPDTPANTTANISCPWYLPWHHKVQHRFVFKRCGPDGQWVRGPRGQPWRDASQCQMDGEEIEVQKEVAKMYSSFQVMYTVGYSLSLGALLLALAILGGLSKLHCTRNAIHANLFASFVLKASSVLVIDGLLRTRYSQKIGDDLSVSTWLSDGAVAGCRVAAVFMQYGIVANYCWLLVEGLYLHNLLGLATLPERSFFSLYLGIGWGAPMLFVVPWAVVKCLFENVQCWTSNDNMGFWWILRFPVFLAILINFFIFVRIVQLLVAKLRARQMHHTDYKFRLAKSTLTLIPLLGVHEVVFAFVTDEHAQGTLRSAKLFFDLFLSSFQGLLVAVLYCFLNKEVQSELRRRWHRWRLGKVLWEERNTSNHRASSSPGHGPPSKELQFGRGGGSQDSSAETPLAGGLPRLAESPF

[13] = biological target: human parathyroid hormone type 1 receptor (PTH1 receptor) (human) (UniProt Q03431); test: cell-based or functional assay
[14] = biological target: human parathyroid hormone type 2 receptor (PTH2 receptor) (human) (UniProt P49190); test: cell-based or functional assay; remark: listed apart in the source
[15] = biological target: T3, human parathyroid hormone type 1 receptor (PTH1 receptor) (human, UniProt Q03431 27-593); test: cell-based or functional assay
T3 sequence (looked up): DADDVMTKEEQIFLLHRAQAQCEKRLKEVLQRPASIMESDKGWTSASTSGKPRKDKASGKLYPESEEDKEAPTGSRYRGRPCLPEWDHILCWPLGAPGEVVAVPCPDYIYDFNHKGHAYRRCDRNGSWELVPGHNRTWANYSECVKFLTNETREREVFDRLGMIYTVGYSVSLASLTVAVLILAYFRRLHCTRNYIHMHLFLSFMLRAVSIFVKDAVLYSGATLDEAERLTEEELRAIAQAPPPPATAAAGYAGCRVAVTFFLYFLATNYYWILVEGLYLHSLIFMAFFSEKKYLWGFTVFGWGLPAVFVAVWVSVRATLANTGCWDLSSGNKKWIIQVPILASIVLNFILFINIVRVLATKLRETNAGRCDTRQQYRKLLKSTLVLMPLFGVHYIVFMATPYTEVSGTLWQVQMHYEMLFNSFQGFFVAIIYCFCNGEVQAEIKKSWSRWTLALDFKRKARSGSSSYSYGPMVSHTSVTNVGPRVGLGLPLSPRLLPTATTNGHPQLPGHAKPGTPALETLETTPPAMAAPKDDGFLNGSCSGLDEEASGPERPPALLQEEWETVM

[16] = biological target: T3, human parathyroid hormone type 1 …; test: radioligand displacement, 293PTH1 membranes, centrifugation assay, 10 µM GTPγS
[17] = biological target: T1, human parathyroid hormone type 2 …; test: displacement of [125I]TIP39, 293PTH2 membranes, centrifugation assay, 10 µM GTPγS
Experimental: (§1) This assay measures the affinity of ligands for the free receptor, uncoupled from G-protein.
(§2) A similar assay design was used for the PTH1 and PTH2 receptor, in which radiolabeled agonist binding was displaced by the unlabeled ligands in the presence of 10 μM GTPγS. Briefly, cell membranes (45 μg), radioligand (50 000 cpm) and unlabeled ligand were incubated in a final volume of 1 ml assay buffer (20 mM HEPES, 100 mM NaCl, 1 mM EDTA, 3 mM MgSO₄ pH 7.5, supplemented with 0.3% non-fat dried milk powder, 100 μM (4-(2-aminoethyl))-benzenesulfonylflouride (AEBSF), 1 μg/ml bacitracin and 10 μM GTPγS) for two hours at 21° C. Membranes were collected at 18 000×g, the surface of the pellet gently washed and the radioactivity counted as described in Examples. […] To prevent greater than 20% of the total radioligand added from binding to the membranes, 15-20 μg of membranes from transfected cells were used, made up to 45 μg with membranes from non-transfected cells.

[18] = biological target: T3, human parathyroid hormone type 1 …; test: displacement of [125I][Nle8,21,Tyr34]rPTH(1-34), 293PTH1 membranes, filtration assay
Text: Under the conditions of the assay, the receptor-G-protein complex is the predominant receptor state detected.

[19] = biological target: T3, human parathyroid hormone type 1 …; test: displacement of [125I][Nle8,21,Tyr34]rPTH(1-34), 293PTH1 membranes, centrifugation assay, 10 µM GTPγS
Experimental: as §1, §2

[20] = biological target: T3, human parathyroid hormone type 1 …; test: saturation binding, HEK293 membranes, filtration
Experimental: (§3) Total binding data were analyzed using Equation 3. For presentation purposes the non-specific binding has been subtracted and specific binding values expressed as pmol radioligand bound per mg of membrane protein. Data points are mean±s.e.m. of triplicate determinations. The experiment was performed three times with similar results. In most cases the error bars are enclosed within the symbol. […] Linear regression analysis was performed on pooled data to obtain estimates of kₒₙ (provided by the gradient) and koff (provided by the y intercept). […] Dissociation time course. The line is the best fit of the data to a mono-exponential function. […] Data points are the mean±s.e.m. of triplicate measurements. The experiment was performed twice with similar results. In most cases the error bars are enclosed within the symbol.
(§4) Incubations were carried out in 96-well polypropylene plates. The incubation mixture was transferred to a polyvinylidene fluoride filtration plate (MAHVN45, Millipore, Bedford, Mass.) and the membranes collected by rapid filtration using a Millipore Multiscreen vacuum manifold. […] In radioligand association experiments, radioligand and buffer were brought to 21° C. by incubation in a water bath for 15 minutes. Similarly pre-warmed membranes were then added to the wells at various time points and the assay wells harvested simultaneously.

[21] = biological target: T3, human parathyroid hormone type 1 …; test: radioligand binding, HEK293 membranes, filtration
Experimental: Incubations were carried out in 96-well polypropylene plates. The incubation mixture was transferred to a polyvinylidene fluoride filtration plate (MAHVN45, Millipore, Bedford, Mass.) and the membranes collected by rapid filtration using a Millipore Multiscreen vacuum manifold. […] In radioligand association experiments, radioligand and buffer were brought to 21° C. by incubation in a water bath for 15 minutes.

[22] = biological target: T3, human parathyroid hormone type 1 …; test: dissociation time course of the radioligand, HEK293 membranes
Experimental: as §3, §4

[23] = biological target: T3, human parathyroid hormone type 1 …; test: y intercept of kon(obs) against radioligand concentration, HEK293 membranes
Experimental: as §3, §4

[24] = biological target: T3, human parathyroid hormone type 1 …; test: kinetically derived from association and dissociation of the radioligand, HEK293 membranes
Experimental: as §3, §4

[25] = biological target: T3, human parathyroid hormone type 1 …; test: radioligand association kinetics, HEK293 membranes, filtration; value held constant in the fit of FIG. G
Experimental: as §3, §4

[26] = biological target: T3, human parathyroid hormone type 1 …; test: radioligand dissociation kinetics, HEK293 membranes, filtration; value held constant in the fit of FIG. G
Experimental: as §3, §4

Molecule: [Nle^8,18, Tyr^34]bPTH(1-34) (from UniProt P01268 32-65) (peptide)
- -logEC50 (cAMP accumulation) [1]: 8.41
- EC50 (cAMP accumulation) [1]: 3.9 nM
- Emax, % of response to 1 µM hPTH(1-34) [1]: 76%
- -logEC50 (cAMP accumulation) (rat PTH2 receptor): 6.85
- EC50 (cAMP accumulation) (rat PTH2 receptor): 141 nM
- Emax, % of response of hPTH2r to 1 µM hPTH(1-34) (rat PTH2 receptor): 5%
- Emax, % of response of rPTH2r to 3 µM rPTH(1-34) (rat PTH2 receptor): 19%

Molecule: PTHrP(1-34) (from UniProt P12272 37-70) (peptide)
- Emax, % of response to 1 µM hPTH(1-34) [1]: 25%
- Emax, % of response of hPTH2r to 1 µM hPTH(1-34) (rat PTH2 receptor): 7%
- Emax, % of response of rPTH2r to 3 µM rPTH(1-34) (rat PTH2 receptor): 14%

Molecule: [^125I][Nle^8,21, Tyr^34]rPTH(1-34) (from UniProt P04089 32-65) (peptide)
- signal-to-noise ratio [2]: 3.5 fold
- signal-to-noise ratio [3]: 2 fold
- total binding (cpm) [4]: 4400 cpm and 4800 cpm

Molecule: [Nle^8,21, Tyr^34]rPTH(1-34) amide (from UniProt P04089 32-65) (peptide)
- IC50 [5]: 1.1 nM
- fold increase of IC50 with GTPγS [6]: 1.5 fold

Molecule: [^125I][Nle^8,18, Tyr^34]bPTH(3-34) (from UniProt P01268 34-65) (peptide)
- signal-to-noise ratio [7]: 6
- koff [8]: 0.00102 s⁻¹

Molecule: [Nle^8,18, D-Tryp^12, Tyr^34]bPTH(7-34) amide (from UniProt P01268 38-65) (peptide)
- pA2 (shift of rPTH(1-34) cAMP EC50 by 1 µM antagonist) [1]: 6.5
- pA2 as concentration [1]: 320 nM
- pA2 (shift of rPTH(1-34) cAMP EC50 by 1 µM antagonist) (rat PTH2 receptor): 6.5
- pA2 as concentration (rat PTH2 receptor): 310 nM

Molecule: [D-Tryp^12, Tyr^34]bPTH(7-34) amide (from UniProt P01268 38-65) (peptide)
- fold difference of IC50 against TIP(7-39) [9]: 7.3 fold

Molecule: hPTH(1-84) (from UniProt P01270 32-115) (peptide)
- Emax, % of response to 1 µM hPTH(1-34) [1]: 79%

Molecule: hPTH(1-34) (from UniProt P01270 32-65) (peptide)
- maximal ligand-stimulated cAMP production [1]: 4 pmol.well^-1
- maximal ligand-stimulated cAMP production (25 µl assay volume) [1]: 6 pmol.well^-1
- Emax, % of response of hPTH2r to 1 µM hPTH(1-34) (rat PTH2 receptor): 22%
- Emax, % of response of rPTH2r to 3 µM rPTH(1-34) (rat PTH2 receptor): 43%

Molecule: [Nle^8,18, Tyr^34]bPTH(3-34) amide (from UniProt P01268 34-65) (peptide)
- Emax, % of the maximal response to rPTH(1-34) (cAMP, COS-7 cells) [10]: 26%
- -logEC50 (cAMP accumulation) [1]: 8.28
- EC50 (cAMP accumulation) [1]: 5.2 nM
- Emax, % of response to 1 µM hPTH(1-34) [1]: 37%
- koff [11]: 0.0005 s⁻¹

Molecule: ALADDAAFRERARLLAALERRHWLNSYMHKLLVLDAP [TIP(3-39)]
- binding result [12]: binds

B1: tuberinfundibular peptide of 39 residues (TIP39), bovine sequence, synthetic (peptide)
peptide: SLALADDAAFRERARLLAALERRHWLNSYMHKLLVLDAP
notes: Chemically synthesized 39 residue peptide (Anaspec or Biomolecules Midwest); also called bTIP39; synthetic hypothalamic peptide
- maximal effect against PTH (rat PTH2 receptor): ~3 fold
- binding result (human glucagon receptor): no binding (tested: 1 µM)

Molecule: AVSEIQLMHNLGKHLASVERMQWLRKKLQDVHNF (peptide, UniProt P04089 32-65, looked up, also: binding, rPTH(1-34) denotes the [Nle8,21, Tyr34] analogue) [rPTH(1-34)]
- EC50 (cAMP production, HEK293 cells) [13]: 0.5 nM
- -logEC50 (cAMP accumulation) [14]: 9.39
- EC50 (cAMP accumulation) [14]: 0.41 nM
- EC50 (cAMP production, HEK293 cells) [14]: 58000 nM
- EC50 (cAMP) [14]: 0.15 nM
- Emax [14]: 85%
- Emax, % of response to 1 µM hPTH(1-34) [14]: 94%
- -logEC50 (cAMP accumulation) (rat PTH2 receptor): 7.09
- EC50 (cAMP accumulation) (rat PTH2 receptor): 81 nM
- EC50 (cAMP) (rat PTH2 receptor): 49 nM
- Emax, % of response of hPTH2r to 1 µM hPTH(1-34) (rat PTH2 receptor): 46%
- Emax, % of response of rPTH2r to 3 µM rPTH(1-34) (rat PTH2 receptor): 100%
- maximal ligand-stimulated cAMP production (50 µl-volume assays) (rat PTH2 receptor): 2.1 pmol.well^-1

Molecule: ADDAAFRERARLLAALERRHWLNSYMHKLLVLDAP [TIP(5-39)]
- binding result [12]: binds

Molecule: DAAFRERARLLAALERRHWLNSYMHKLLVLDAP (also called bTIP(7-39)) [TIP(7-39)]
- fold-shift of rPTH(1-34) EC50 by 1 µM TIP(7-39), 20% human plasma [15]: 11 fold
- fold-shift of rPTH(1-34) EC50 by 1 µM TIP(7-39), absence of plasma [15]: 7 fold
- fold lower affinity than full-length TIP39 [12]: 70 fold
- fold higher affinity than TIP39 [16]: 12 fold
- -logIC50 [17]: 7.01
- IC50 [17]: 98 nM
- fold lower binding potency than full-length TIP39 [17]: 32 fold
- fold higher affinity than TIP39 [18]: 5.6 fold
- -logIC50 [19]: 8.3
- IC50 [19]: 5 nM

B2: TIP(2-39) (peptide)
peptide: LALADDAAFRERARLLAALERRHWLNSYMHKLLVLDAP
notes: N-terminally truncated TIP39 analogue from Biomolecules Midwest
- binding result [12]: binds

B3: [^125I]TIP(7-39) (peptide)
peptide: DAAFRERARLLAALERRHWLNSY(125I)MHKLLVLDAP
notes: 2000 Ci/mmol; also called radiolabeled TIP(7-39)
- Kd [20]: 1.3 nM
- total binding: non-specific binding ratio [21]: ~5
- koff [22]: 0.000833 s⁻¹
- koff [23]: 0.00128 s⁻¹
- Kd [24]: 0.57 nM
- kon [25]: 1.48e+06 M⁻¹ s⁻¹
- koff [26]: 0.00085 s⁻¹

Molecule: SEIQFMHNLGKHLSSMERVEWLRKKLQDVHNF (peptide, UniProt P01268 34-65, looked up) [bPTH(3-34)]
- -logEC50 (cAMP accumulation) [14]: 8.05
- EC50 (cAMP accumulation) [14]: 8.9 nM
- Emax, % of response to 1 µM hPTH(1-34) [14]: 38%

B4: rPTH(1-84) (peptide, UniProt P04089 32-115, looked up)
peptide: AVSEIQLMHNLGKHLASVERMQWLRKKLQDVHNFVSLGVQMAAREGSYQRPTKKEENVLVDGNSKSLGEGDKADVDVLVKAKSQ
- -logEC50 (cAMP accumulation) [14]: 9.24
- EC50 (cAMP accumulation) [14]: 0.58 nM
- Emax, % of response to 1 µM hPTH(1-34) [14]: 98%
- -logEC50 (cAMP accumulation) (rat PTH2 receptor): 7.72
- EC50 (cAMP accumulation) (rat PTH2 receptor): 19 nM
- Emax, % of response of hPTH2r to 1 µM hPTH(1-34) (rat PTH2 receptor): 28%
- Emax, % of response of rPTH2r to 3 µM rPTH(1-34) (rat PTH2 receptor): 97%
